Earlier results in paper PMC12582428.
Where two headings read alike, the source gives them in different places.

Key:
[1] = biological target: Neuropeptide Y (Homo sapiens) (UniProt P01303)
[2] = biological target: Neuropeptide Y (Homo sapiens) (UniProt P01303); remark: listed apart in the source

Sequence of Neuropeptide Y receptor Y1 (P25929 whole entry): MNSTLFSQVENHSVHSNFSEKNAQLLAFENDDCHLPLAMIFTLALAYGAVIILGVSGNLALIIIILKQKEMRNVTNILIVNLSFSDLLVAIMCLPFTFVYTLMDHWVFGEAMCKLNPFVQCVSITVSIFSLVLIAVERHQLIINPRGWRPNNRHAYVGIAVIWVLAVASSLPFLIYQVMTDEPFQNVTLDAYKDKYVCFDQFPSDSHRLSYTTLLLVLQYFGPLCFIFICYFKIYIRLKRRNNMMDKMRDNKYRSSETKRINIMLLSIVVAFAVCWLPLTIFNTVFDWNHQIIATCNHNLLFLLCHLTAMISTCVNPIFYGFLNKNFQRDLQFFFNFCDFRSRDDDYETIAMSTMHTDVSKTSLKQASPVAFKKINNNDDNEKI
Sequence of Neuropeptide Y receptor Y2 (P49146 whole entry): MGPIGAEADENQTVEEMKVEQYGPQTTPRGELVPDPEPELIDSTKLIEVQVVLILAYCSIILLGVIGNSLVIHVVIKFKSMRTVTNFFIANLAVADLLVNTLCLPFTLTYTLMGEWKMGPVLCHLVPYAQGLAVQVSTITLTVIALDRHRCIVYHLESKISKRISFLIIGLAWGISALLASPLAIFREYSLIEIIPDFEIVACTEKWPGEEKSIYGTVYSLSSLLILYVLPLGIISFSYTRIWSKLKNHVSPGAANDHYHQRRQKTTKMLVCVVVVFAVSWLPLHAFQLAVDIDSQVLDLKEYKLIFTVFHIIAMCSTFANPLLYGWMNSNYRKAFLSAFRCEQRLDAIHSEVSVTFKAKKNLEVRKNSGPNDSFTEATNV

Kd [1] [nM]	Kd [2] [nM]	Substance
4	–	Neuropeptide Y receptor Y1 (from UniProt P25929)
–	0.12	Neuropeptide Y receptor Y2 (from UniProt P49146)
